According to article PMC3794996:

Experiments:
[1] = target: A/bat/Peru/10 H18 HA ectodomain (hemagglutinin of influenza virus A/flat-faced bat/Peru/033/2010, H18N11) (influenza A virus A/flat-faced bat/Peru/033/2010 (H18N11)); assay: crystal structure
[2] = target: A/bat/Peru/10 N11 NAL ectodomain (neuraminidase-like protein of influenza virus A/flat-faced bat/Peru/033/2010, H18N11) (influenza A virus A/flat-faced bat/Peru/033/2010 (H18N11)); assay: crystal structure
[3] = target: A/bat/Peru/10 N11 NAL protein with ectodomain plus stalk region (influenza A virus A/flat-faced bat/Peru/033/2010 (H18N11))

A/bat/Peru/10 H18 HA ectodomain (hemagglutinin of influenza virus A/flat-faced bat/Peru/033/2010, H18N11) (domain or fragment)
stoichiometry N [1]: 3

A/bat/Peru/10 N11 NAL ectodomain (neuraminidase-like protein of influenza virus A/flat-faced bat/Peru/033/2010, H18N11) (domain or fragment)
stoichiometry N [2]: 4

A/bat/Peru/10 N11 NAL protein with ectodomain plus stalk region (domain or fragment)
stoichiometry N [3]: 4
